Our source for the Kd, koff and kon values is doi:10.1101/2025.10.29.685445 (bioRxiv, 2025).

Assay [1] deals with T1, HCoV-HKU1 RBD (residues 310-606 of isolate N5), as used in BLI (Human coronavirus HKU1, isolate N5, UniProt Q0ZME7).
T1 construct: source: FreeStyle 293-F, transfected (PEI), purified (Protein A, Superdex 200)
The assay is described as follows: BLI. The note with it: both partners purified.

Assay [2] addresses T2, HCoV-HKU1 RBD (residues 310-606 of isolate N5), Fc- and His-tagged (Human coronavirus HKU1, isolate N5, UniProt Q0ZME7).
T2 construct: also called HCoV-HKU1 S1-CTD; not shown: Fc-tag, C-terminal, kept; 8X HisTag, C-terminal, kept
The assay can be described thus: SPR. The note with it: both partners purified.

T1 sequence (Q0ZME7 310-606): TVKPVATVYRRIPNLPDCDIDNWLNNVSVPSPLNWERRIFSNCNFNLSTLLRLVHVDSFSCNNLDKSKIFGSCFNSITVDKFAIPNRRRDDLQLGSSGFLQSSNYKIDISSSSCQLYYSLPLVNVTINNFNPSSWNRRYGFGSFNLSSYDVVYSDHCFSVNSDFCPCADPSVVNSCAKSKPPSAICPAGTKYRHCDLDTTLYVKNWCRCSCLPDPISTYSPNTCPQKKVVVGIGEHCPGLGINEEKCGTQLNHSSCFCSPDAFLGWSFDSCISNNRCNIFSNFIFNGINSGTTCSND
T2 sequence (Q0ZME7 310-606): as above

B1: H501-022 IgG (antibody, V domains shown)
VH: QGTLKESGPMLVKPTQTLTLTCNFSGFSLSTSGVGVGWIRQPPGKALECLALIYWNDDQRYSPSLKTRLTITKDTSKNQVVLTMTNMDPVDTATYYCVYSMSRPVAGGVIDHWGQGTLVTVSS
VL: DIQLTQSPSSLSASEGDRVTITCWASQNIRGYLNWYQQKPGKAPKLLIYATSTLESGVPSRFSGSGSVTDYTLTISSLQPEDFATYSCQQSYSSPPTFGGGTKVDIK
notes: also called mAb H501–022; H-022; copies: 2 + 2
Turning to B1, in assay [1], the dissociation constant Kd (in general, the equilibrium constant for the complex coming apart) is 2.01 nM; the koff (in general, a measure of how fast the partners let go of each other) was 0.000555 s⁻¹; the kon (as a rule, the second-order rate constant of association) worked out at 276000 M⁻¹ s⁻¹.

B2: H501-018 IgG (antibody, V domains shown)
VH: QVQLQESGPGLVKPSETLSLTCSVSGGSISNFYWSWIRQPPGKGLEWIGYIYYTGSSEYNPSLKSRVILSVDTSKNHFSLKLSSVTAADTAIYYCARGTWSRRLEVDLWGQGTLVTVSS
VL: QSVLTQPPSASGTPGQRVTISCSGSSSNIGSNYVYWYQQLPGTAPKLLIYRSIQRPSGVPDRFSGSKSGTSASLAISGLRSEDEADYYCATWDDSLNSWVFAGGTKLTVL
notes: also called mAb H501–018; H-018; copies: 2 + 2
In assay [1], B2 showed an equilibrium dissociation constant (Kd) of 0.37 nM, a koff of 0.000105 s⁻¹ and a kon of 283000 M⁻¹ s⁻¹.

B3: H501-008 Fab (Fab, V domains shown)
VH: QVQLVQSGGGVVQPGRSLRLSCAVSGFTLDRYAMHWVRQAPGKALEWVALMSADGREQYYAESVKGRFTFSRDSSKNTLYLQMHNLRTDDSSVYFCAREGPMYYDAWSGRSYYNNYALDVWGRGTTVAVSS
VL: QSVLTQPPSVSAAPGQTVTISCSGSSSNIGDNYVSWYQQVPGTAPRLLVYDNNRRPLGIPDRFSGSKSGTSATLAIAGLQTGDEADYYCGTWDSSLSAGVFGGGTKLTVV
notes: also called H501–08 Fab
On to B3, for which, in assay [2], the Kd turned out to be 0.161 nM.

B4: H501-008 IgG (antibody, V domains shown)
VH: B3 VH
VL: B3 VL
notes: also called H501–08; mAb H501–008; copies: 2 + 2
For the molecule B4, in assay [1], binding was put at a Kd of 0.937 nM, the off-rate constant (koff) was determined as 0.000315 s⁻¹ and the association rate constant (kon) was 336000 M⁻¹ s⁻¹.
